Source: publication PMC3742642 (Structure (London, England : 1993), 2013)

B1: bacteriophage ϕ6 capsid protein P1, wild type, in P1247 procapsids (natural protein)
chain: FNLKVKDLNGSARGLTQAFAIGELKNQLSVGALQLPLQFTRTFSASMTSELLWEVGKGNIDPVMYARLFFQYAQAGGALSVDELVNQFTEYHQSTACNPEIWRKLTAYITGSSNRAIKADAVGKVPPTAILEQLRTLAPSEHELFHHITTDFVCHVLSPLGFILPDAAYVYRVGRTATYPNFYALVDCVRASDLRRMLTALSSVDSKMLQATFKAKGALAPALISQHLANAATTAFERSRGNFDANAVVSSVLTILGRLWSPSTPKELDPSARLRNTNGIDQLRSNLALFIAYQDMVKQRGRAEVIFSDEELSSTIIPWFIEAMSEVSPFKLRPINETTSYIGQTSAIDHMGQPSHVVVYEDWQFAKEITAFTPVKLANNSNQRFLDVEPGISDRMSATLAPIGNTFAVSAFVKNRTAVYEAVSQRGTVNSNGAEMTLGFPSVVERDYALDRDPMVAIAALRTGIVDESLEARASNDLKRSMFNYYAAVMHYAVAHNPEVVVSEHQGVAAEQGSLYLVWNVRTELRIPVGYNAIEGGSIRTPEPLEAIAYNKPIQPSEVLQAKVLDLANHTTSIHIWPWHEASTEFAYEDAYSVTIRNKRYTAEVKEFELLGLGQRRERVRILKPTVAHAIIQMWYSWFVEDDRTLAAARRTSRDDAEKLAIDGRRMQNAVTLLRKIEMIGTTGIGASAVHLAQSRIVDQMAGRGLIDDSSDLHVGINRHRIRIWAGLAVLQMMGLLSRSEAEALTKVLGDSNALGMVVATTDIDPSL
B2: bacteriophage ϕ6 capsid protein P1, full length, C-terminal His6-tag (natural protein, UniProt P11126 1-769, looked up)
chain: MFNLKVKDLNGSARGLTQAFAIGELKNQLSVGALQLPLQFTRTFSASMTSELLWEVGKGNIDPVMYARLFFQYAQAGGALSVDELVNQFTEYHQSTACNPEIWRKLTAYITGSSNRAIKADAVGKVPPTAILEQLRTLAPSEHELFHHITTDFVCHVLSPLGFILPDAAYVYRVGRTATYPNFYALVDCVRASDLRRMLTALSSVDSKMLQATFKAKGALAPALISQHLANAATTAFERSRGNFDANAVVSSVLTILGRLWSPSTPKELDPSARLRNTNGIDQLRSNLALFIAYQDMVKQRGRAEVIFSDEELSSTIIPWFIEAMSEVSPFKLRPINETTSYIGQTSAIDHMGQPSHVVVYEDWQFAKEITAFTPVKLANNSNQRFLDVEPGISDRMSATLAPIGNTFAVSAFVKNRTAVYEAVSQRGTVNSNGAEMTLGFPSVVERDYALDRDPMVAIAALRTGIVDESLEARASNDLKRSMFNYYAAVMHYAVAHNPEVVVSEHQGVAAEQGSLYLVWNVRTELRIPVGYNAIEGGSIRTPEPLEAIAYNKPIQPSEVLQAKVLDLANHTTSIHIWPWHEASTEFAYEDAYSVTIRNKRYTAEVKEFELLGLGQRRERVRILKPTVAHAIIQMWYSWFVEDDRTLAAARRTSRDDAEKLAIDGRRMQNAVTLLRKIEMIGTTGIGASAVHLAQSRIVDQMAGRGLIDDSSDLHVGINRHRIRIWAGLAVLQMMGLLSRSEAEALTKVLGDSNALGMVVATTDIDPSL

What was measured:
cryo-EM structure = target: the molecule itself; experiment: cryo-EM structure
SEC = target: the molecule itself; experiment: SEC
crystal structure = target: the molecule itself; experiment: crystal structure

Protein	stoichiometry N (cryo-EM structure)	stoichiometry N (SEC)	stoichiometry N (crystal structure)
B1	120		
B2		2	5
